Experimental data from paper PMC6949295 (2020).

B1: Exo70-Flag [rat] / HA-Exo84 [not stated] (parent complex)
chain 1: MIPPQEASARRREIEDKLKQEEETLSFIRDSLEKSDQLTKNMVSILSSFESRLMKLENSIIPVHKQTENLQRLQENVEKTLSCLDHVISYYHVASDTEKIIREGPTGRLEEYLGSMAKIQKAVEYFQDNSPDSPELNKVKLLFERGKESLESEFRSLMTRHSKVISPVLVLDLISADDELEVQEDVVLEHLPESVLQDVIRISRWLVEYGRNQDFMNVYYQIRSSQLDRSIKGLKEHFRKSSSSSGVPYSPAIPNKRKDTPTKKPIKRPGRDDMLDVETDAYIHCVSAFVRLAQSEYQLLMGIIPEHHQKKTFDSLIQDALDGLMLEGENIVSAARKAIIRHDFSTVLTVFPILRHLKQTKPEFDQVLQGTAASTKNKLPGLITSMETIGAKALEDFADNIKNDPDKEYNMPKDGTVHELTSNAILFLQQLLDFQETAGAMLASQETSSSATSYNSEFSKRLLSTYICKVLGNLQLNLLSKSKVYEDPALSAIFLHNNYNYILKSLEKSELIQLVAVTQKTAERSYREHIEQQIQTYQRSWLKVTDYIAEKNLPVFQPGVKLRDKERQMIKERFKGFNDGLEELCKIQKAWAIPDTEQRDKIRQAQKSIVKETYGAFLHRYSSVPFTKNPEKYIKYRVEQVGDMIDRLFDTSA
chain 2: MSDSGASRLRRQLESGGFEARLYVKQLSQQSDGDRDLQEHRQRVQALAEETAQNLKRNVYQNYRQFIETAREISYLESEMYQLSHLLTEQKSSLESIPLALLPAAAAGASTGEDTAGAGPRERGAAQAGFLPGPAGVPREGPGTGEEGKQRTLTTLLEKVEGCRDLLETPGQYLVYNGDLVEYEADHMAQLQRVHGFLMNDCLLVATWLPQRRGMYRYNALYPLDRLAVVNVKDNPPMKDMFKLLMFPESRIFQAENAKIKREWLEVLEETKRALSDKRRREQEEAAALRAPPPVTSKGSNPFEDEAEEELATPEAEEEKVDLSMEWIQELPEDLDVCIAQRDFEGAVDLLDKLNHYLEDKPSPPSVKELRAKVDERVRQLTEVLVFELSPDRSLRGGPKATRRAVSQLIRLGQCTKACELFLRNRAAAVHTAIRQLRIEGATLLYIHKLCHVFFTSLLETAREFETDFAGTDSGCYSAFVVWARSAMGMFVDAFSKQVFDSKESLSTAAECVKVAKEHCQQLGEIGLDLTFIIHALLVKDIQGALLSYKEIIIEATKHRNSEEMWRRMNLMTPEALGKLKEEMRSCGVSNFEQYTGDDCWVNLSYTVVAFTKQTMGFLEEALKLYFPELHMVLLESLVEVILVAVQHVDYSLRCEQDPEKKTFIRQNASFLYDTVLPVVERRFEEGVGKPAKQLQDLRNASRLLRVNPESTTSVV

Variants of: B1
Assay: co-immunoprecipitation (IP: HA, blot: Flag); 293T cells; parent: 0.13

| response | Variant |
| --- | --- |
| 0 relative band intensity | chain 1 S47D, chain 1 S59D, chain 1 S89D |
